Data published in patent publication US20170349647A1.

Columns and labels:
[1] = molecular target: recombinant nucleoprotein derived from influenza viruses subtype A H3N2 (Sino Biological, 40208-[change]) (influenza virus type A H3N2)
[2] = molecular target: recombinant nucleoprotein derived from influenza viruses subtype A H1N1 (Sino Biological, 11675-[change]) (influenza virus type A H1N1)
Sequence of recombinant nucleoprotein derived from influenza viruses subtype A H1N1 (Sino Biological, 11675-[change]) (influenza virus type A H1N1) (P03466 whole entry): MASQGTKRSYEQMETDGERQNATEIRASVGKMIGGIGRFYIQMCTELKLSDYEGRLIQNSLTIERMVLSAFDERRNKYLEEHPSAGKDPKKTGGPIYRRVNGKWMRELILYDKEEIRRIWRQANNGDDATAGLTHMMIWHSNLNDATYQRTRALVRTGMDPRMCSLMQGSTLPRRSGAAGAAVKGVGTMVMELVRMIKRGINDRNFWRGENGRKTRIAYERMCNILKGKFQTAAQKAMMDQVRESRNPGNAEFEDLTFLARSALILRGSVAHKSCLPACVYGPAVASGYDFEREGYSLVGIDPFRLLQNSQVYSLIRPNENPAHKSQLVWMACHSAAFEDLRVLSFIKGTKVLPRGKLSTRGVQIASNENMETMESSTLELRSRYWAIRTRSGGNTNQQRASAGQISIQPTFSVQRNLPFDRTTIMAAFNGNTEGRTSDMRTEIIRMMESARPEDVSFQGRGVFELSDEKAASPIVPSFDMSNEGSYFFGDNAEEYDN

B1: VHH antibody consisting of the amino acid sequence represented by SEQ ID NO: 08 (VHH)
VHH: QVQLVESGGGLVQAGGSLRLSCAASRTIFNPNVMGWYRQAPGKQRELVADISLSGSTNYADSVKGRFTISRDNAKNTMYLQMNSLKPEDTAVYYCNTNAISGAPGRYWGQGTQVTVSS
Q: Which EC50 (read off the curve) [1] does the source give for B1 here?
A: Its EC50 (read off the curve) is 0.03 µg/mL.

Q: And the EC50 (read off the curve) [2]?
A: The EC50 (read off the curve) was 4 ng/mL.
